Measured values from patent US20180023146A1 (CLEVELAND CLINIC FOUNDATION, published 2018).

Biological target: T1, 3βHSD1 (367N)-HA (human, UniProt P14060 2-373)
T1 construct: Expressed from pCMX-HSD3B1-HA in 293T cells and immunoprecipitated with anti-HA antibody; also called HSD3B1(N)-HA; not shown: HA tag fused to HSD3B1
T1 sequence (looked up): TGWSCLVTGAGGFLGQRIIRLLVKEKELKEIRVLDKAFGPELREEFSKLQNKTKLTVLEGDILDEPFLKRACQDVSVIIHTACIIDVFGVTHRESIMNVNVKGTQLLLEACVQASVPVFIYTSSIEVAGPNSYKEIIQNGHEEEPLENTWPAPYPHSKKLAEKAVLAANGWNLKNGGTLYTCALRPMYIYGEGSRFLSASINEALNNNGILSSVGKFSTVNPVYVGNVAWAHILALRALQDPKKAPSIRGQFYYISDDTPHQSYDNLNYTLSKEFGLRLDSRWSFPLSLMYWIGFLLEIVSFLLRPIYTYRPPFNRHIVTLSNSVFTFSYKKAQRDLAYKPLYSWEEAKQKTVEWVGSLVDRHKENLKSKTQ
Experiment: SILAC with high-resolution mass spectrometry; 367N-HA (heavy) and 367T-HA (light) immunoprecipitations mixed 1:1

B1: AMFR (autocrine mobility factor receptor) (enzyme, UniProt Q9UKV5 1-643, looked up)
chain: MPLLFLERFPWPSLRTYTGLSGLALLGTIISAYRALSQPEAGPGEPDQLTASLQPEPPAPARPSAGGPRARDVAQYLLSDSLFVWVLVNTACCVLMLVAKLIQCIVFGPLRVSERQHLKDKFWNFIFYKFIFIFGVLNVQTVEEVVMWCLWFAGLVFLHLMVQLCKDRFEYLSFSPTTPMSSHGRVLSLLVAMLLSCCGLAAVCSITGYTHGMHTLAFMAAESLLVTVRTAHVILRYVIHLWDLNHEGTWEGKGTYVYYTDFVMELTLLSLDLMHHIHMLLFGNIWLSMASLVIFMQLRYLFHEVQRRIRRHKNYLRVVGNMEARFAVATPEELAVNNDDCAICWDSMQAARKLPCGHLFHNSCLRSWLEQDTSCPTCRMSLNIADNNRVREEHQGENLDENLVPVAAAEGRPRLNQHNHFFHFDGSRIASWLPSFSVEVMHTTNILGITQASNSQLNAMAHQIQEMFPQVPYHLVLQDLQLTRSVEITTDNILEGRIQVPFPTQRSDSIRPALNSPVERPSSDQEEGETSAQTERVPLDLSPRLEETLDFGEVEVEPSEVEDFEARGSRFSKSADERQRMLVQRKDELLQQARKRFLNKSSEDDAASESFLPSEGASSDPVTLRRRMLAAAAERRLQKQQTS
notes: It appears to be the protein of the human 293T cells, co-immunoprecipitated with HA-tagged 3βHSD1; also called gp78; ubiquitin E3-ligase AMFR
  normalized protein ratio (SILAC; 3βHSD1 (367N)-HA against 3βHSD1 (367T)-HA immunoprecipitates): 1.67
